# Measurements as given in patent EP4772193A1 (Teijin Pharma Limited, dated 2026).
# Substitutions are numbered along the chain they refer to. Numbers in names are those of the source.
# B1: hGPN06-1_H1L1 VH D110A (antibody, V domains shown)
# VH: QVQLVQSGAEVKKPGASVKVSCKASGYTFTDNWMGWVKQRPGQGLEWIGAIDPSDSFTNYNQNFKGRVTMTVDTSISTAYMELSRLRSDDSAVYFCTRSGYYGSPKLGGAYWGQGTLVTVSS
# VL: EIVLTQSPSSLSASVGDRVTITCSASSSISYMHWYQQKSGTAPKLLIYSTSNLASGVPSRFSGSGSGTDFTFTISSLQPEDAATYYCHQWNSYPCTFGGGTKLEIK
# B2: hGPN06-1_H1L1 VH Y102A (antibody, V domains shown)
# VH: B1 VH with Y102A, A110D
# VL: B1 VL
# B3: hGPN06-1_H1L1 VH S104A (antibody, V domains shown)
# VH: B1 VH with S104A, A110D
# VL: B1 VL
# B4: hGPN06-1_H1L1 VH S99A (antibody, V domains shown)
# VH: B1 VH with S99A, A110D
# VL: B1 VL
# B5: hGPN06-1_H1L1 VH G108A (antibody, V domains shown)
# VH: B1 VH with G108A, A110D
# VL: B1 VL
# B6: hGPN06-1_H1L1 VH R98A (antibody, V domains shown)
# VH: B1 VH with R98A, A110D
# VL: B1 VL
# B7: hGPN06-1_H1L1 VH L107A (antibody, V domains shown)
# VH: B1 VH with L107A, A110D
# VL: B1 VL
# B8: hGPN06-1_H1L1 VH Y101A (antibody, V domains shown)
# VH: B1 VH with Y101A, A110D
# VL: B1 VL
# B9: hGPN06-1_H1L1 VH Y111A (antibody, V domains shown)
# VH: B1 VH with A110D, Y111A
# VL: B1 VL
# B10: hGPN06-1_H1L1 VH P105A (antibody, V domains shown)
# VH: B1 VH with P105A, A110D
# VL: B1 VL
# B11: hGPN06-1_H1L1 VH T97A (antibody, V domains shown)
# VH: B1 VH with T97A, A110D
# VL: B1 VL
# B12: hGPN06-1_H1L1 VH G100A (antibody, V domains shown)
# VH: B1 VH with G100A, A110D
# VL: B1 VL
# B13: hGPN06-1_H1L1 VH K106A (antibody, V domains shown)
# VH: B1 VH with K106A, A110D
# VL: B1 VL
# B14: hGPN06-1_H1L1 VH G103A (antibody, V domains shown)
# VH: B1 VH with G103A, A110D
# VL: B1 VL
# B15: hGPN06-1_H1L1 VH G109A (antibody, V domains shown)
# VH: B1 VH with G109A, A110D
# VL: B1 VL
# B16: hGPN18-2_H2L3 VH S64A (antibody, V domains shown)
# VH: QVQLVQSGPGLVQPTQTLTLTCSFSGFSLSTSVMGVGWIRQPSGKGLEWLADIWWDDDKDYNPALKSRLTISKDTSKNQVVLTMTNMDTVDTATYYCARTYYSNYEYYGMDYWGQGTLVTVSS
# VL: DIVMTQSPDSLAVSLGERATINCRSSQTIILSNGNTYLEWYQQKPGQPPKLLIYKVSNRFSGVPDRFSGSGSGTDFTLTISSLQAEDVAVYYCFQGSHVPFTFGSGTKLEIKR
# B17: hGPN18-2_H2L3 VH Y108A (antibody, V domains shown)
# VH: B16 VH with A64S, Y108A
# VL: B16 VL
# B18: hGPN18-2_H2L3 VH Y102A (antibody, V domains shown)
# VH: B16 VH with A64S, Y102A
# VL: B16 VL
# B19: hGPN18-2_H2L3 VH Y61A (antibody, V domains shown)
# VH: B16 VH with Y61A, A64S
# VL: B16 VL
# B20: hGPN18-2_H2L3 VH Y112A (antibody, V domains shown)
# VH: B16 VH with A64S, Y112A
# VL: B16 VL
# B21: hGPN18-2_H2L3 VH Y107A (antibody, V domains shown)
# VH: B16 VH with A64S, Y107A
# VL: B16 VL
# B22: hGPN18-2_H2L3 VH S103A (antibody, V domains shown)
# VH: B16 VH with A64S, S103A
# VL: B16 VL
# B23: hGPN18-2_H2L3 VH Y101A (antibody, V domains shown)
# VH: B16 VH with A64S, Y101A
# VL: B16 VL
# B24: hGPN18-2_H2L3 VH Y105A (antibody, V domains shown)
# VH: B16 VH with A64S, Y105A
# VL: B16 VL
# B25: hGPN18-2_H2L3 VH S67A (antibody, V domains shown)
# VH: B16 VH with A64S, S67A
# VL: B16 VL
# B26: hGPN18-2_H2L3 VH T100A (antibody, V domains shown)
# VH: B16 VH with A64S, T100A
# VL: B16 VL
# Target: T1, recombinant human soluble gpNMB (recombinant human gpNMB-FLAG-His) (human, UniProt Q14956 23-498)
# T1 sequence: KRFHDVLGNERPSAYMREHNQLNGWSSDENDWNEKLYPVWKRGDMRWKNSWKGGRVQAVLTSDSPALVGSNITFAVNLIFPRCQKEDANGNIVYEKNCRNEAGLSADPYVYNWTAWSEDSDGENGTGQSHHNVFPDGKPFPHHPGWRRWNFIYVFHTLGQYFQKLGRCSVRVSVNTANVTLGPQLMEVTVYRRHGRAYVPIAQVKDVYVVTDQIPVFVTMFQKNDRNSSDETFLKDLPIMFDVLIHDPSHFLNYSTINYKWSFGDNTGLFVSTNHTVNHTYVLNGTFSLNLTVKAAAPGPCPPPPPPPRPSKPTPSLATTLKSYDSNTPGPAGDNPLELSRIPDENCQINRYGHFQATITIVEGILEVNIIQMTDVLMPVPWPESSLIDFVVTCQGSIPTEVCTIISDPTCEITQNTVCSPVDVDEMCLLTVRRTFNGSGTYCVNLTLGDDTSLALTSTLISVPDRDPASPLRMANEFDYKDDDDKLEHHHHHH
# Assay: antigen ELISA
row,Binder,EC50
1,B1,0.956 nM
2,B2,2.21 nM
3,B3,0.712 nM
4,B4,0.587 nM
5,B5,0.476 nM
6,B6,53.2 nM
7,B7,1.05 nM
8,B8,0.502 nM
9,B9,0.584 nM
10,B10,1.18 nM
11,B11,0.36 nM
12,B12,65.8 nM
13,B13,0.441 nM
14,B14,0.762 nM
15,B15,4.89 nM

# Target: T1, recombinant human soluble gpNMB …
# Assay: antigen ELISA
# Remark: another data set of the same source
row,Binder,EC50
1,B16,3.59 nM
2,B17,4.7 nM
3,B18,49.1 nM
4,B19,7.55 nM
5,B20,3.73 nM
6,B21,60.9 nM
7,B22,4.04 nM
8,B23,7.68 nM
9,B24,15.6 nM
10,B25,4.25 nM
11,B26,8.44 nM

# Target: T1, recombinant human soluble gpNMB …
# Assay: antigen ELISA, vs hGPN06-1_H1L1
row,Binder,Relative binding activity
1,B1,0.79
2,B2,0.68
3,B3,0.88
4,B4,0.92
5,B5,0.96
6,B6,0.05
7,B7,0.71
8,B8,1.04
9,B9,0.99
10,B10,1.09
11,B11,0.98
12,B12,0.06
13,B13,1
14,B14,1.14
15,B15,0.34

# Target: T1, recombinant human soluble gpNMB …
# Assay: antigen ELISA, vs hGPN18-2_H2L3
row,Binder,Relative binding activity
1,B16,1.09
2,B17,0.91
3,B18,0.07
4,B19,0.7
5,B20,1.05
6,B21,0.06
7,B22,0.94
8,B23,0.61
9,B24,0.47
10,B25,1.01
11,B26,0.47
